Source: patent US20260183411A1, “TARGETING SORTILIN” (priority 2024, published 2026)
Bridges are numbered along the chain shown (N, C = ends). Where no end group is shown, it is not given here. Side-chain parts run from the residue outwards. [ ]: non-standard residue; d: D form. tBuAla = CC(C)(C)C[C@H](N)C(=O)O; Tle = CC(C)(C)[C@H](N)C(=O)O; linker = not defined here; Nle = CCCC[C@H](N)C(=O)O; siRNA = not defined here

T1: rat SORT1 (76-752)-His (rat, UniProt O54861 76-752)
T1 construct: range 76-752; Amine-coupled to CM5 chip for SPR
T1 sequence (looked up): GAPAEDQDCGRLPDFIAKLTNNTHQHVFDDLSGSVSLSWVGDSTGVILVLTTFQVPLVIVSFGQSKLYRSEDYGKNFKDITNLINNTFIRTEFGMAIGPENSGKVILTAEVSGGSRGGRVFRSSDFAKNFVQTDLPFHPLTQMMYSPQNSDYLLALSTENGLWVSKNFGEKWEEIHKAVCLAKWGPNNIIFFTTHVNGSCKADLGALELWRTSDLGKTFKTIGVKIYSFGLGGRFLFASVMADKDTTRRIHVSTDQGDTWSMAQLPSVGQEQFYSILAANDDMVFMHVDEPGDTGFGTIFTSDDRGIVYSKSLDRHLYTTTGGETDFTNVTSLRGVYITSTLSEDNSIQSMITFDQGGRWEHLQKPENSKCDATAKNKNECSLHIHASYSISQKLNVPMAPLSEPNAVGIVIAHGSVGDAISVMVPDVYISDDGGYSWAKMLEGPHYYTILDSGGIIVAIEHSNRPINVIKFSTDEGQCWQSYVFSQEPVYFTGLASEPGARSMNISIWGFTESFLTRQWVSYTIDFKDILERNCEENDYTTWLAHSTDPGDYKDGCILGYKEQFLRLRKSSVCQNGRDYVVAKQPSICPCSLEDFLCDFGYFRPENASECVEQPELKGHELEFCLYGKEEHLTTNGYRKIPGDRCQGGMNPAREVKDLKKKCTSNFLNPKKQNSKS


Columns and labels:
MDA-MB-231 xenograft = assay: MDA-MB-231 murine xenograft efficacy model; type: in vivo, mouse
Procedure, shortened: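 Female BALB/c nude mice bearing subcutaneous MDA-MB-231 tumours (10×10^6 cells in PBS/Matrigel), treated from ~150-200 mm^3 mean volume. Free MMAE given i.v. QW×4 at 0.6 or 0.06 mg/kg in 25 mM histidine/10% sucrose pH 7. Caliper volumes twice weekly; TGI (%) calculated against vehicle group.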

rat SORT1 (76-752)-His = target: T1, rat SORT1 (76-752)-His; assay: SPR (Biacore 8K), SORT1 on CM5 chip, siRNA-peptide conjugate as analyte, 1:1 model
Method: SPR analysis was performed on Series S CM5 chips (Cytiva) using a Biacore 8K instrument (Cytiva). Sensorgrams were double-referenced by subtracting the response on both a reference flow cell and a blank sample. Human SORT1 (78-755)-His (Acrobiosystems), human SORT1 (78-755)-His(GenScript), mouse SORT1 (76-753)-His (R&D Systems), rat SORT1 (76-752)-His (GenScript), and cyno SORT1 (76-753)-His (GenScript) were diluted to 20-60 μg/mL in 10 mM sodium acetate pH 4.5 buffer and immobilized onto Series S CM5 chips using amine coupling at a flow rate of 10 μL/min for 45-100 s.
Ten start-up cycles and a blank cycle preceded each analysis run. The runs were performed by sequential injections of analyte (0-20 nM, 3-fold serial dilutions) with a 90 s association and 900 s dissociation at a flow rate of 30 μL/min, followed by two regeneration cycles with 2 M MgCl2 for 90 s at a flow rate of 10 μL/min. […] Five start-up cycles and a blank cycle preceded each analysis run. The runs were performed by sequential injections of analyte (0-25 nM) with a 150 seconds (s) association and 300 s dissociation at a flow rate of 30 μL/min, followed by a regeneration with 2 M MgCl₂ for 200 s at a flow rate of 10 μL/min. The kinetic rate constants (kₐ and kd) and the equilibrium binding constant (Kd) were calculated using a 1:1 kinetic binding model on the Biacore Insight Evaluation Software (Cytiva).
SPR analysis was performed on Series S CM5 chips (Cytiva) using a Biacore 8K instrument (Cytiva). Sensorgrams were double-referenced by subtracting the response on both a reference flow cell and a blank sample. The SPR analysis was conducted using four different SORT1 species: Human SORT1, Mouse SORT1, Rat SORT1, and Cyno SORT1. The samples were prepared according to the general procedure described above herein. The kinetic rate constants (ka and […]) and the equilibrium binding constant (Kd) were calculated using a 1:1 kinetic binding model on the Biacore Insight Evaluation Software (Cytiva).

Row | Kd (rat SORT1 (76-752)-His) | Molecule | tumor growth inhibition, dose dependence (MDA-MB-231 xenograft; 3, 1, 0.3 mg/kg i.v. QW×4) | body weight variation (Example 6) (MDA-MB-231 xenograft; PDC at each dose, free MMAE at equivalency to 3 mg/kg PDC) | body weight loss (Example 8) (MDA-MB-231 xenograft; PDCs 3 mg/kg, free MMAE at molar equivalency (0.6 mg/kg))
1 |  | CC[C@H](C)[C@@H]([C@@H](CC(=O)N1CCC[C@H]1[C@H](OC)[C@@H](C)C(=O)N[C@H](C)[C@@H](O)c1ccccc1)OC)N(C)C(=O)[C@@H](NC(=O)[C@H](C(C)C)N(C)C(=O)OCc1ccc(NC(=O)[C@H](CCCNC(N)=O)NC(=O)[C@@H](NC(=O)CCCC(=O)NCCC(=O)N(C)CC(=O)N(C)CC(=O)N(C)CC(=O)N(C)CC(=O)N[C@@H](C)C(=O)N2CCC[C@H]2C(=O)N[C@@H](CCCNC(=N)N)C(=O)N[C@@H](Cc2c[nH]c3ccccc23)C(=O)N[C@@H](CC(=O)O)C(=O)N[C@@H](C)C(=O)N2CCC[C@H]2C(=O)N[C@@H](CC(C)C)C(=O)N[C@@H](CCCNC(=N)N)C(=O)N[C@@H](CC(=O)O)C(=O)N2CCC[C@H]2C(=O)N[C@@H](C)C(=O)N[C@@H](CC(C)C)C(=O)N[C@@H](CCCNC(=N)N)C(=O)N[C@@H](CCC(N)=O)C(=O)N[C@@H](CC(C)C)C(=O)N[C@@H](CC(C)C)C(=O)O)C(C)C)cc1)C(C)C [PRGN_WT_PDC] | dose-dependent tumor growth inhibition | mirrored that observed with vehicle treatment | body weight loss tracked each other
2 | 253 nM | RWCENK([linker-siRNA])R[Nle]FTCRQ[Tle][tBuAla] (disulfide 3-11 (inferred); not fully specified; printed as RWCENKR(Nle)FTCRQ(B13)(F02); reading uncertain, also called SORT1 peptide 3 siRNA conjugate) [SORT1 peptide 3 conjugate] |  |  | 
